B1: ZNF449 (parent)
chain: EPHKCPECGKRFLRSSDLYRHQRL

Variants of: B1
Experiment: protein stability index of a GFP-peptide fusion (GPS, HEK-293T) (PSI 1-6); higher = more stable
Conditions: c terminus: a fixed tail appended
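Also: lentivirally expressed fusions sorted by FACS into six bins by GFP to DsRed ratio, PSI derived from sequencing read proportions per bin multiplied by bin number.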

Protein stability index, by site and new letter:
E1: V 2.67, M 2.89, C 2.14, F 2.93, K 2.79, G 3.13, D 4.06, P 3.19, N 2.83, R 3.37, L 2.81, S 2.73, W 3.2, Y 3.3, A 2.84, H 3.45, T 2.6, I 2.6, Q 3.12
K4: M 4.7, V 4.7, D 4.36, Q 4.57, N 4.09, G 3.68, S 4.13, Y 4.47, C 3.86, T 4.46, R 3.71, A 4.5, E 4.73, H 4.09, W 3.65, L 4.49, P 3.42, I 4.71, F 3.98
G9: R 2.31, P 2.82, S 3.36, A 2.24, C 2.18, K 2.61, N 3.14, M 2.72, I 2.65, D 2.99, L 2.3, E 3.15, Q 3.16, H 3.08, F 2.52
P6: M 3.88, D 4.46, G 3.5, V 3.57, R 3.1, H 3.91, Y 3.53, I 3.23, L 3.38, T 3.52, A 3.75, S 3.69, C 3.75, F 3.22, E 4.19, W 3.31, N 4.17, K 3.62, Q 3.68
H3: G 3.02, F 4.09, L 4.89, R 3.29, W 4, A 3.25, C 3.58, K 3.23, P 3.33, V 3.72, Q 3.31, T 3.9, D 3.23, M 3.79, N 4.49, Y 4.7, E 2.99, I 4.1, S 2.97
P2: C 3.58, Y 3.21, E 3.42, N 3.37, R 3.54, F 3.17, V 3.02, A 3.5, S 4.41, G 3.81, Q 3.53, T 3.52, H 3.95, D 4, W 3.22, L 3.63, K 3.57, M 3.38, I 3.18
C5: L 3.3, T 2.79, P 3.07, E 3.56, S 3.44, R 3.14, G 2.63, D 3.69, F 2.5, K 4, Y 3.14, M 3.06, I 3.26, N 3.41, A 3.69, W 3.01, V 2.87, H 3.19, Q 3.6
E7: D 4.12, P 2.21, C 4.37, F 3.25, K 4.14, T 3.82, H 3.65, Y 3.66, N 3.81, Q 3.62, M 3.65, A 3.29, S 4.11, G 3.74, W 4.05, L 3.51, I 3.3, R 3.17, V 3.44
C8: I 3.06, D 4.03, H 3.26, S 3.37, P 3.51, T 3.36, L 3.01, N 3.16, M 3.05, V 3.25, F 2.72, Q 3.43, K 3.75, E 4.02, G 3.3, W 2.64, Y 3.24, A 3.24, R 3.08

From the supplement of paper PMC10567573
